# T1: Human AXL-Fc (R&D Systems, #154-AL) (human, UniProt P30530 26-451)
# T1 construct: Bought reagent; also called human AXL-Fc fusion protein; human AXL-Fc protein; not shown: Fc part of the bought fusion protein
# T1 sequence: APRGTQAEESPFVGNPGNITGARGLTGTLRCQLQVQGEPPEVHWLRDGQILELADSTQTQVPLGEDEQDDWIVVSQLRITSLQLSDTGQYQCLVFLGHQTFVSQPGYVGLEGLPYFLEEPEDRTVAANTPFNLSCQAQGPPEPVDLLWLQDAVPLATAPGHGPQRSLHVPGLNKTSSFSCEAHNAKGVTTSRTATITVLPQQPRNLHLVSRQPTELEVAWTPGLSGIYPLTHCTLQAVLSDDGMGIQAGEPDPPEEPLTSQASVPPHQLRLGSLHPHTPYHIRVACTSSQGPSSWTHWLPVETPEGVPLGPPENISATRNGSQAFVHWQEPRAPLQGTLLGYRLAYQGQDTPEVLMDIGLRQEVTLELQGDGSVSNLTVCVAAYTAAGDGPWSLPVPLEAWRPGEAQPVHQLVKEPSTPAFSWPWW
# Molecular target: T1, Human AXL-Fc (R&D Systems, #154-AL)
# Test: ELISA on plate-adsorbed human AXL-Fc (1 ug/ml), 5-fold antibody dilution series, AP-conjugated goat anti-human IgG, fluorescent substrate (Example 13)
row,EC50 (read off the curve),Binder
1,~0.02 µg/mL,"h#11B7-T3 (antibody, human IgG1, kappa, V domains shown, Humanized IgG1/kappa) VH: QVQLQESGPGLVKPSQTLSLTCAVSGYSITSNYWGWIRKPPGDGLEWMGYITYSGSTSYNPSLKSRISITRDTSKNQFSLKLSSVTAADTAVYYCAITTFYYWGQGTLVTVSS VL: DIQMTQSPSSLSASVGDRVTITCRASQDIGNYLRWFQQKPGKAPKLMISGATNLAAGVPSRFSGSRSGSDYTLTISSLQPEDFATYYCLQSKESPWTFGGGTKVEIKR"
2,~0.03 µg/mL,"h#11B7-T2 (antibody, human IgG1, kappa, V domains shown, Humanized IgG1/kappa) VH: QIQLQESGPGLVKPSQTLSLTCAVSGYSITSNYWGWIRQPPGKGLEWMGYITYSGSTSYNPSLKSRISISVDTSKNQFSLKLSSVTAADTAVYYCAITTFYYWGQGTLVTVSS VL: DIQMTQSPSSLSASVGDRVTITCRASQDIGNYLRWFQQKPGKAPKLMISGATNLAAGVPSRFSGTGSGTDYTFTISSLQPEDFATYYCLQSKESPWTFGGGTKVEIKR"
3,~0.02 µg/mL,"h#11B7-T6 (antibody, human IgG1, kappa, Humanized IgG1/kappa) heavy: not shown light: DIQMTQSPSSLSASVGDRVTITCRASQDIGNYLRWFQQKPGKAPKLMISGATNLAAGVPSRFSGSGSGSDYTLTISSLQPEDFATYYCLQSKESPWTFGQGTKVEIKRTVAAPSVFIFPPSDEQLKSGTASVVCLLNNFYPREAKVQWKVDNALQSGNSQESVTEQDSKDSTYSLSSTLTLSKADYEKHKVYACEVTHQGLSSPVTKSFNRGEC"
4,~0.06 µg/mL,"h#11B7-T4 (antibody, human IgG1, kappa, Humanized IgG1/kappa) heavy: not shown light: DIQMTQSPSSLSASVGDRVTITCRASQDIGNYLRWYQQKPGKAPKLLISGATNLAAGVPSRFSGSGSGSDFTLTISSLQPEDFATYYCLQSKESPWTFGQGTKLEIKRTVAAPSVFIFPPSDEQLKSGTASVVCLLNNFYPREAKVQWKVDNALQSGNSQESVTEQDSKDSTYSLSSTLTLSKADYEKHKVYACEVTHQGLSSPVTKSFNRGEC"
5,~0.02 µg/mL,"h#11B7-T5 (antibody, human IgG1, kappa, Humanized IgG1/kappa) heavy: not shown light: DIQMTQSPSSLSASVGDRVTITCRASQDIGNYLRWFQQKPGKAPKLMISGATNLAAGVPSRFSGSGSGSDYTLTISSLQPEDFATYYCLQSKESPWTFGQGTKLEIKRTVAAPSVFIFPPSDEQLKSGTASVVCLLNNFYPREAKVQWKVDNALQSGNSQESVTEQDSKDSTYSLSSTLTLSKADYEKHKVYACEVTHQGLSSPVTKSFNRGEC"

# Molecular target: T1, Human AXL-Fc (R&D Systems, #154-AL)
# Test: ELISA on plate-adsorbed human AXL-Fc (1 ug/ml), 5-fold antibody dilution series, AP-conjugated goat anti-human IgG, fluorescent substrate (Example 23)
row,EC50 (read off the curve),Binder
1,~0.04 µg/mL,"h#11B7-T28 (antibody, human IgG1, kappa, Humanized IgG1/kappa) heavy: not shown light: DIQMTQSPSSLSASVGDRVTITCRASQDIGNYLRWFQQKPGKAPKLLISGATNLAAGVPSRFSGSGSGSDYTLTISSLQPEDFATYYCLQSKESPWTFGQGTKLEIKRTVAAPSVFIFPPSDEQLKSGTASVVCLLNNFYPREAKVQWKVDNALQSGNSQESVTEQDSKDSTYSLSSTLTLSKADYEKHKVYACEVTHQGLSSPVTKSFNRGEC"
2,~0.04 µg/mL,"h#11B7-T29 (antibody, human IgG1, kappa, Humanized IgG1/kappa) heavy: not shown light: DIQMTQSPSSLSASVGDRVTITCRASQDIGNYLRWFQQKPGKAPKLLISGATNLAAGVPSRFSGSGSGSDFTLTISSLQPEDFATYYCLQSKESPWTFGQGTKLEIKRTVAAPSVFIFPPSDEQLKSGTASVVCLLNNFYPREAKVQWKVDNALQSGNSQESVTEQDSKDSTYSLSSTLTLSKADYEKHKVYACEVTHQGLSSPVTKSFNRGEC"
3,~0.04 µg/mL,"h#11B7-T31 (antibody, human IgG1, kappa, Humanized IgG1/kappa) heavy: not shown light: DIQMTQSPSSLSASVGDRVTITCRASQDIGNYLRWFQQKPGKAPKLLISGATNLAAGVPSRFSGSGSGSDFTLTISSLQPEDFATYYCLQSKESPWTFGQGTKLEIKRTVAAPSVFIFPPSDEQLKSGTASVVCLLNNFYPREAKVQWKVDNALQSGNSQESVTEQDSKDSTYSLSSTLTLSKADYEKHKVYACEVTHQGLSSPVTKSFNRGEC"
4,~0.04 µg/mL,"h#11B7-T30 (antibody, human IgG1, kappa, Humanized IgG1/kappa) heavy: not shown light: DIQMTQSPSSLSASVGDRVTITCRASQDIGNYLRWFQQKPGKAPKLLISGATNLAAGVPSRFSGSGSGSDYTLTISSLQPEDFATYYCLQSKESPWTFGQGTKLEIKRTVAAPSVFIFPPSDEQLKSGTASVVCLLNNFYPREAKVQWKVDNALQSGNSQESVTEQDSKDSTYSLSSTLTLSKADYEKHKVYACEVTHQGLSSPVTKSFNRGEC"

# Molecular target: T1, Human AXL-Fc (R&D Systems, #154-AL)
# Test: ELISA on plate-adsorbed human AXL-Fc (1 ug/ml), 5-fold antibody dilution series, AP-conjugated goat anti-human IgG, fluorescent substrate (Example 14)
row,EC50 (read off the curve),Binder
1,~0.02 µg/mL,"h#11D5-T3 (antibody, human IgG1, kappa, V domains shown, Humanized IgG1/kappa) VH: EVQLQESGPGLVKPSQTLSLTCTVSGYSITSNYWGWIRKFPGNKMEWIGHITNSGNTTYNPSLKSRISISRDTSKNQFSLKLSSVTPADTAVYYCAKGAFDYWGQGTLVTVSS VL: DIQMTQSPSSLSASVGDRVTITCRASQDIGNYLSWFQQKVGKSPRRMIYGAIKLAVGVPSRFSGSRSGSDYTLTISSLQPEDFAIYYCLQYIQFPLTFGSGTKLEIKR"
2,~0.01 µg/mL,"h#11D5-T6 (antibody, human IgG1, kappa, Humanized IgG1/kappa) heavy: not shown light: DIQMTQSPSSLSASVGDRVTITCRASQDIGNYLSWFQQKPGKAPRRMIYGAIKLAVGVPSRFSGSGSGTDYTLTISSLQPEDFATYYCLQYIQFPLTFGQGTKVEIKRTVAAPSVFIFPPSDEQLKSGTASVVCLLNNFYPREAKVQWKVDNALQSGNSQESVTEQDSKDSTYSLSSTLTLSKADYEKHKVYACEVTHQGLSSPVTKSFNRGEC"

# Source: patent US20120117670A1 (U3 PHARMA, published 2012)
